In PMC4183563, “Protospacer Adjacent Motif (PAM)-Distal Sequences Engage CRISPR Cas9 DNA Target Cleavage”:

How the values were obtained:
Cas9 (wild type) [1] = target: T1, Cas9 (wild type) (Streptococcus pyogenes, UniProt Q99ZW2 1-1368); assay: EMSA; 20 nM crRNA cr20, 20 nM tracrRNA; EMSA: 1 nM 32P-dsDNA, 10 nM Cas9 (or titrated), 20 nM tracrRNA, 20 nM crRNA, 2.5 ug/ml heparin, 5% native PAGE; buffer, pH and temperature as in cited ref 11 (not given); settings: protein: recombinant; label: 32P on DNA; duplex DNA; crRNA:tracrRNA guide
Cas9 (wild type) [2] = target: T1, Cas9 (wild type); assay: EMSA; cr20 + tracrRNA; EMSA: 1 nM 32P-dsDNA, 10 nM Cas9 (or titrated), 20 nM tracrRNA, 20 nM crRNA, 2.5 ug/ml heparin, 5% native PAGE; buffer, pH and temperature as in cited ref 11 (not given); settings: protein: recombinant; label: 32P on DNA; duplex DNA; crRNA:tracrRNA guide

T1 sequence (Q99ZW2 whole entry): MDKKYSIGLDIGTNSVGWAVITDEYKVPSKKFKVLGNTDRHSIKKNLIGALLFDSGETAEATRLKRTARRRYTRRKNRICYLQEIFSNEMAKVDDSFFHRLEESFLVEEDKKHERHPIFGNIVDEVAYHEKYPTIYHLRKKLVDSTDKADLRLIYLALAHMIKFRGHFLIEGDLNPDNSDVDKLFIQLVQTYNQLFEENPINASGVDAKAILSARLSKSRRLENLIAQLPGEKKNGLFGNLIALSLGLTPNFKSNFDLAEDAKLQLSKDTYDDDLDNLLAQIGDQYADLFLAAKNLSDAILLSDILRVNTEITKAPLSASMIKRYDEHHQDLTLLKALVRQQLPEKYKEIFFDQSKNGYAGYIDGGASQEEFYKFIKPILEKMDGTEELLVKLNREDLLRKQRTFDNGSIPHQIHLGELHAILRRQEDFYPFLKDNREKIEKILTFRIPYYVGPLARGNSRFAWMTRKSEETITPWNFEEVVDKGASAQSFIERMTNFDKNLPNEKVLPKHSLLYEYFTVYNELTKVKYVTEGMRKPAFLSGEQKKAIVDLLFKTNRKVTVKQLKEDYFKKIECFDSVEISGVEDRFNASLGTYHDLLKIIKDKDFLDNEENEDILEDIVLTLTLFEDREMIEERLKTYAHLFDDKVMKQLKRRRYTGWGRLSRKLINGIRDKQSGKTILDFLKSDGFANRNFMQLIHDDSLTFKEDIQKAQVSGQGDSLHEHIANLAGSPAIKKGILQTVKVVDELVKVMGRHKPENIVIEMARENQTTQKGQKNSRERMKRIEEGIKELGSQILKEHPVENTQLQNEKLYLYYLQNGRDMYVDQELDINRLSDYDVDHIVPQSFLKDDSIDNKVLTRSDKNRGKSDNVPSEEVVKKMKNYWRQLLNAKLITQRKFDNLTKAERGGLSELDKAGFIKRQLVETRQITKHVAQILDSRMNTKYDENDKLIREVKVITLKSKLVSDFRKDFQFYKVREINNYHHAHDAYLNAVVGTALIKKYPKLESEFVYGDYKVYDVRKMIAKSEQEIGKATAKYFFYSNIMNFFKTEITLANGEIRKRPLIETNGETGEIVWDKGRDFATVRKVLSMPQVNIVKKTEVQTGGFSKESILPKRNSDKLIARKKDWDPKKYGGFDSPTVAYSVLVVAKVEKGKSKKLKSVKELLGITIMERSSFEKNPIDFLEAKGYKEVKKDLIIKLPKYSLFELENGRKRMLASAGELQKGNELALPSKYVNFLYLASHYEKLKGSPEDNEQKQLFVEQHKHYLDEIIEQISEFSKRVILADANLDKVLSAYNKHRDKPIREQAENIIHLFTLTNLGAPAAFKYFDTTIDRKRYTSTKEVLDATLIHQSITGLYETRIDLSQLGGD

| Binder | Kd (Cas9 (wild type) [1]) [nM] | binding result (Cas9 (wild type) [2]) |
| --- | --- | --- |
| p53 [Exon 7] 55 bp duplex + cr20 + tracrRNA (mixed) DNA 1: TCCACTACAAGTACATGTGTAATAGCTCCTGCATGGGGGGCATGAACCGCCGACC DNA 2: GGTCGGCGGTTCATGCCCCCCATGCAGGAGCTATTACACATGTACTTGTAGTGGA | 1.5 ± 0.1 |  |
| OT#7 probe + cr20 + tracrRNA (mixed) DNA 1: TCCACTACAAGTACATGTGGAACAGCTCCTGCATGGGGGGCATGAACCGCCGACC DNA 2: GGTCGGCGGTTCATGCCCCCCATGCAGGAGCTGTTCCACATGTACTTGTAGTGGA |  | binds |
